The results in this text go back to patent publication US20140308291A1 (INTEGRATED BIOTHERAPEUTICS, published 2014).

The target of this test is T1, wild-type gamma hemolysin B subunit (HlgB) (Staphylococcus aureus, UniProt Q2FVK1 27-325).
T1 construct: also called Gamma B; gamma hemolysin component B
T1 sequence: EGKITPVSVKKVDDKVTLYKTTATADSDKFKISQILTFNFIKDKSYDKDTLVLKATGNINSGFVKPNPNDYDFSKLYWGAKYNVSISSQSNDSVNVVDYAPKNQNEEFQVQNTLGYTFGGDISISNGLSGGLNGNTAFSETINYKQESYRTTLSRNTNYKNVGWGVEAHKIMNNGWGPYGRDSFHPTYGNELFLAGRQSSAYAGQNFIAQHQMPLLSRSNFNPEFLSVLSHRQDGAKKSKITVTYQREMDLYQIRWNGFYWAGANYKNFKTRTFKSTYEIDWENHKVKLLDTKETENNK
In words: MPD-based oligomerization assay (40% MPD, 24 hours), SDS-PAGE without boiling.

B1: LukS-PV triple mutant T28F/K97A/S209A (Mut9) (other)
chain: HHHHHHDNNIENIGDGAEVVKRTEDTSSDKWGVFQNIQFDFVKDKKYNKDALILKMQGFINSKTTYYNYKNTDHIKAMRWPFQYNIGLKTNDPNVDLINYLPANKIDSVNVSQTLGYNIGGNFNSGPSTGGNGSFNYSKTISYNQQNYISEVEHQNSKSVQWGIKANSFITSLGKMSGHDPNLFVGYKPYSQNPRDYFVPDNELPPLVHSGFNPAFIATVSHEKGSGDTSEFEITYGRNMDVTHATRRTTHYGNSYLEGSRIHNAFVNRNYTVKYEVNWKTHEIKVKGHN
In the case of B1, the binding result is listed as “no binding”.
